Experimental findings from publication PMC2064240 (The Journal of Cell Biology, 2006) are described below.

The assay has as its target T1, GST-SV343-571 (bovine, UniProt O46385-2 343-571).
T1 sequence (looked up): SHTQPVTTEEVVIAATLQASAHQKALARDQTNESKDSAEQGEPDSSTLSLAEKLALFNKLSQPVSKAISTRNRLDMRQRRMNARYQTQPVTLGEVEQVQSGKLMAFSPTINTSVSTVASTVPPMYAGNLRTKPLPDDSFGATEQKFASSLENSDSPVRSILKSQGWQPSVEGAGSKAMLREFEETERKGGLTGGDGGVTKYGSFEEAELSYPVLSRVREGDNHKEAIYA
The experiment in a line: pull-down.

B1: 6×His-tagged TRIP6 LIM domains (aa 265-476) (domain or fragment, human (HeLa cell cDNA library), UniProt Q15654-1 265-476, looked up)
chain: HDMNHPPSGEYFGQCGGCGEDVVGDGAGVVALDRVFHVGCFVCSTCRAQLRGQHFYAVERRAYCEGCYVATLEKCATCSQPILDRILRAMGKAYHPGCFTCVVCHRGLDGIPFTVDATSQIHCIEDFHRKFAPRCSVCGGAIMPEPGQEETVRIVALDRSFHIGCYKCEECGLLLSSEGECQGCYPLDGHILCKACSAWRIQELSATVTTDC
For B1, the binding result is on record as “binds”.
